Data published in patent publication US20170137818, “APTAMER INHIBITING BIOLOGICAL ACTIVITY OF AUTOTAXIN BY BINDING WITH AUTOTAXIN, AND USE THEREOF” (RIBOMIC INC., published 2017).

B1: 12(67) (ssDNA)
DNA: CCTGGACGGAACCAGAATACTTTTGGTCTCCAGG
modifications: 2'-OMe C7,G9,A14,G15,A19,C20,A32,G33,G34; 5' 40 kDa PEG (GL4-400TS) via ssH linker; 3' idT
B2: 12(117) (ssDNA)
DNA: CCTGGACGGAACCAGAATACTTTTGGTCTCCAGG
modifications: 2'-OMe C7,G9,A14,G15,A19,C20,A32,G33,G34; PS after G8; 5' 40 kDa PEG (GL2-400GS2) via ssH linker; 3' idT

Molecular target: autotaxin (ENPP2/NPP2) (Homo sapiens, UniProt Q13822 Q13822:36-863)
Assay: inhibition; LPA production, 0.10 uM aptamer, ~92% serum, 37C 3 h

Going from CCTGGACGGAACCAGAATACTTTTGGTCTCCAGG (ssDNA, 2'-OMe C7,G9,A14,G15,A19,C20,A32,G33,G34; PS after C20; idT 5' and 3') [12(102)] to CCTGGACGGAACCAGAATACTTTTGGTCTCCAGG (ssDNA, 2'-OMe C7,G9,A14,G15,A19,C20,A32,G33,G34; P-methyl T24; idT 5' and 3') [12(120)], the activity falls from 72 % inhibition to 67 % inhibition.

Compared with CCTGGACGGAACCAGAATACTTTTGGTCTCCAGG (ssDNA, 2'-OMe C7,G9,A14,G15,A19,C20,G33,G34; P-methyl A32; idT 5' and 3') [12(63)], CCTGGACGGAACCAGAATACTTTTGGTCTCCAGG (ssDNA, 2'-OMe C7,G9,A14,G15,A19,C20,A32,G33,G34; PS after G33; idT 5' and 3') [12(116)] is higher in activity: 59 % inhibition for the first, 72 % inhibition for the second.

First: CCTGGACGGAACCAGAATACTTTTGGTCTCCAGG (ssDNA, 2'-OMe C7,G9,A14,G15,A19,C20,A32,G33,G34; PS after A10; idT 5' and 3') [12(78)]
Second: CCTGGACGGAACCAGAATACTTTTGGTCTCCAGG (ssDNA, 2'-OMe C7,G9,A14,G15,A19,C20,A32,G33,G34; P-methyl T29; idT 5' and 3') [12(96)]
The activity of the first is lower: 62 % inhibition for the first, 76 % inhibition for the second.

First: CCTGGACGGAACCAGAATACTTTTGGTCTCCAGG (ssDNA, 2'-OMe C7,G9,A14,G15,A19,C20,A32,G33,G34; PS after A32; idT 5' and 3') [12(115)]
Second: CCTGGACGGAACCAGAATACTTTTGGTCTCCAGG (ssDNA, 2'-OMe C7,G9,A14,G15,A19,C20,A32,G33,G34; PS after C12; idT 5' and 3') [12(80)]
The activity of the first is lower: 77 % inhibition for the first, 85 % inhibition for the second.

Going from CCTGGACGGAACCAGAATACTTTTGGTCTCCAGG (ssDNA, 2'-OMe C7,G9,A14,G15,A19,C20,A32,G33,G34; P-methyl T21; idT 5' and 3') [12(123)] to CCTGGACGGAACCAGAATACTTTTGGTCTCCAGG (ssDNA, 2'-OMe C7,G9,A14,A19,C20,A32,G33,G34; P-methyl G15; idT 5' and 3') [12(64)], the activity falls from 74 % inhibition to 63 % inhibition.

Going from CCTGGACGGAACCAGAATACTTTTGGTCTCCAGG (ssDNA, 2'-OMe C7,G9,A14,G15,A19,C20,A32,G33,G34; PS after T3; idT 5' and 3') [12(109)] to CCTGGACGGAACCAGAATACTTTTGGTCTCCAGG (ssDNA, 2'-OMe C7,G9,A14,G15,A19,C20,U23,A32,G33,G34; idT 5' and 3') [12(70)], the activity falls from 68 % inhibition to 9 % inhibition.

Going from CCTGGACGGAACCAGAATACTTTTGGTCTCCAGG (ssDNA, 2'-OMe C7,G9,A14,G15,A19,C20,A32,G33,G34; P-methyl A6; idT 5' and 3') [12(95)] to CCTGGACGGAACCAGAATACTTTTGGTCTCCAGG (ssDNA, 2'-OMe C7,G9,A14,G15,A19,C20,A32,G33,G34; P-methyl T23; idT 5' and 3') [12(121)], the activity rises from 64 % inhibition to 80 % inhibition.

Going from CCTGGACGGAACCAGAATACTTTTGGTCTCCAGG (ssDNA, 2'-OMe C7,G9,A14,G15,A19,C20,A32,G33,G34; P-methyl G5; idT 5' and 3') [12(128)] to CCTGGACGGAACCAGAATACTTTTGGTCTCCAGG (ssDNA, 2'-OMe C7,G9,A14,G15,A19,C20,U21,A32,G33,G34; idT 5' and 3') [12(74)], the activity falls from 78 % inhibition to 31 % inhibition.

Going from CCTGGACGGAACCAGAATACTTTTGGTCTCCAGG (ssDNA, 2'-OMe C7,G9,A14,G15,A19,A32,G33,G34; P-methyl C20; idT 5' and 3') [12(65)] to CCTGGACGGAACCAGAATACTTTTGGTCTCCAGG (ssDNA, 2'-OMe C7,G9,A14,G15,A19,C20,A32,G33,G34; PS after G4; idT 5' and 3') [12(110)], the activity rises from 57 % inhibition to 63 % inhibition.

Compared with CCTGGACGGAACCAGAATACTTTTGGTCTCCAGG (ssDNA, 2'-OMe C7,G9,A14,G15,A19,C20,A32,G33,G34; P-methyl A17; idT 5' and 3') [12(125)], CCTGGACGGAACCAGAATACTTTTGGTCTCCAGG (ssDNA, 2'-OMe C7,G9,A14,G15,A19,C20,A32,G33,G34; P-methyl T22; idT 5' and 3') [12(122)] is lower in activity: 78 % inhibition for the first, 65 % inhibition for the second.

First: CCTGGACGGAACCAGAATACTTTTGGTCTCCAGG (ssDNA, 2'-OMe C7,G9,A14,G15,A19,C20,A32,G33,G34; PS after C1; idT 5' and 3') [12(107)]
Second: CCTGGACGGAACCAGAATACTTTTGGTCTCCAGG (ssDNA, 2'-OMe C7,G9,A14,G15,A19,C20,A32,G33,G34; PS after A6; idT 5' and 3') [12(76)]
The activity of the first is higher: 75 % inhibition for the first, 67 % inhibition for the second.

Going from CCTGGACGGAACCAGAATACTTTTGGTCTCCAGG (ssDNA, 2'-OMe C7,G9,A14,G15,A19,C20,A32,G33,G34; PS after A11; idT 5' and 3') [12(79)] to B1, the activity rises from 37 % inhibition to 74 % inhibition.

First: CCTGGACGGAACCAGAATACTTTTGGTCTCCAGG (ssDNA, 2'-OMe C7,G9,A14,G15,A19,C20,A32,G33,G34; PS after T27; idT 5' and 3') [12(85)]
Second: CCTGGACGGAACCAGAATACTTTTGGTCTCCAGG (ssDNA, 2'-OMe C7,G9,A14,G15,A19,C20,A32,G33,G34; PS after C31; idT 5' and 3') [12(114)]
The activity of the first is lower: 68 % inhibition for the first, 75 % inhibition for the second.

Going from CCTGGACGGAACCAGAATACTTTTGGTCTCCAGG (ssDNA, 2'-OMe C7,G9,A14,G15,A19,C20,A32,G33,G34; PS after T21; idT 5' and 3') [12(103)] to CCTGGACGGAACCAGAATACTTTTGGTCTCCAGG (ssDNA, 2'-OMe C7,G9,A14,G15,A19,C20,A32,G33,G34; PS after T29; idT 5' and 3') [12(112)], the activity falls from 88 % inhibition to 69 % inhibition.

Going from CCTGGACGGAACCAGAATACTTTTGGTCTCCAGG (ssDNA, 2'-OMe C7,G9,A14,G15,A19,C20,A32,G33,G34; PS after G15; idT 5' and 3') [12(98)] to B2, the activity rises from 76 % inhibition to 90 % inhibition.
